Results reported in patent publication US20200397816A1, “METHODS TO TREAT INFLAMMATORY AND SMOOTH MUSCLE CELL PROLIFERATION DISORDERS” (THE TRUSTEES OF INDIANA UNIVERSITY, priority 2019, published 2020).
Entries after “also recorded” stand apart in the source; their conditions may differ.

Test system: Cyclin D1
Experiment: Cyclin D1 western blot in hPASMC
Format: cell-based, human
Conditions: SMCs; 48 hours of EMAP II stimulation
Experimental: RAW 264.7 (ATCC) mouse macrophages and Human Embryonic Kidney (HEK) 293T cells were cultured in DMEM media with 10% fetal bovine serum […] and glutamine HEPES buffer and beta-mercaptoethanol were added to the growth medium used for RAW 264.7 macrophages. […]
After appropriate treatments, protein lysates were prepared by using RIPA buffer supplemented with phosphatase and protease inhibitors (Thermo Fischer Scientific). […] Western blots were performed according to standard methods and quantified using densitometry using Image Studio Lite software from LI-COR Biosciences. […]
After appropriate treatments, protein lysates were prepared by using RIPA buffer supplemented with phosphatase and protease inhibitors (Thermo Fisher Scientific). […] Western blots were performed according to standard methods and quantified using densitometry using Image Studio Lite software from LI-COR Biosciences.

B1: EMAP II: 6x-His tagged recombinant EMAP II, cleaved C-terminal peptide of AIMP1 (SEQ ID NO: 2), pro-inflammatory cytokine (protein)
chain: IAGSADSKPIDVSRLDLRIGCIITARKHPDADSLYVEEVDVGEIAPRTVVSGLVNHVPLEQMQNRMVILLCNLKPAKMRGVLSQAMVMCASSPEKIEILAPPNGSVPGDRITFDAFPGEPDKELNPKKKIWEQIQPDLHTNDECVATYKGVPFEVKGKGVCRAQTMSNSGIK
cyclin D1 expression: modulates cyclin D1; also recorded: marked increase
